# Results: the Human Domainome abundance scans (Beltran et al. 2025)
# ± gives the uncertainty stated by the source.
# B1: Intersectin-1, residues 909 to 971; numbered along this chain, Q15811 (parent)
# chain: QGEKVEGLQAQALYPWRAKKDNHLNFNKNDVITVLEQQDMWWFGEVQGQKGWFPKSYVKLISG
# Variants of: B1
# Experiment: abundance fitness (aPCA) (normalised: wild type 0, dead -1); higher = more abundant; growth selection in yeast, the domain comes from the species named
# Conditions: Homo sapiens
row,Variant,abundance fitness
1,I32D,-0.568 ± 0.19
2,F26S,-0.866 ± 0.29
3,F26M,0.014 ± 0.48
4,F26R,-1.01 ± 0.22
5,F26E,-1.07 ± 0.39
6,F26I,-0.072 ± 0.22
7,L60M,-0.058 ± 0.2
8,L60N,-0.254 ± 0.18
9,L60T,-0.162 ± 0.1
10,K59M,-0.108 ± 0.23
11,K59D,-0.615 ± 0.28
12,K59T,-0.31 ± 0.13
13,K59L,-0.331 ± 0.14
14,K59V,-0.234 ± 0.12
15,K59S,-0.122 ± 0.13
16,K59H,-0.211 ± 0.33
17,K59E,-0.128 ± 0.14
18,K55C,-0.16 ± 0.21
19,K55E,-0.396 ± 0.34
20,P15L,-0.338 ± 0.13
21,P15F,-0.224 ± 0.32
22,P15S,0.011 ± 0.12
23,P15Q,0.052 ± 0.13
24,L13V,0.091 ± 0.12

row,Variant,abundance fitness
1,L13D,-0.158 ± 0.29
2,L13M,-0.204 ± 0.29
3,L13G,-0.709 ± 0.13
4,V58E,-0.703 ± 0.17
5,V58C,-0.169 ± 0.14
6,V58P,-0.379 ± 0.2
7,V58A,-0.189 ± 0.088
8,V58L,-0.812 ± 0.16
9,W41C,-0.318 ± 0.096
10,W41Y,-0.053 ± 0.18
11,W41Q,-0.316 ± 0.15
12,W41A,-0.489 ± 0.13
13,W41L,-0.252 ± 0.089
14,M40W,-0.475 ± 0.22
15,M40S,0.013 ± 0.12
16,M40I,0.034 ± 0.17
17,E3T,-0.305 ± 0.26
18,E3Q,0.026 ± 0.24
19,E3M,-0.312 ± 0.27
20,E3L,-0.268 ± 0.22
21,E3S,-0.319 ± 0.25
22,E3K,-0.079 ± 0.18
23,E3I,0.237 ± 0.37
24,E3R,-0.074 ± 0.11

row,Variant,abundance fitness
1,E3W,-0.332 ± 0.2
2,E3H,-0.088 ± 0.46
3,E3F,-0.169 ± 0.29
4,G48D,-0.061 ± 0.18
5,G48R,-0.224 ± 0.094
6,G48E,0.011 ± 0.15
7,G48Y,-0.074 ± 0.21
8,G48C,-0.361 ± 0.15
9,W42D,-0.429 ± 0.25
10,W42L,-0.088 ± 0.066
11,W42K,-1.18 ± 0.4
12,W42T,-0.527 ± 0.085
13,W42F,-0.057 ± 0.17
14,W42E,-0.814 ± 0.12
15,Q49D,-0.466 ± 0.3
16,Q49I,-0.208 ± 0.3
17,Q49K,-0.483 ± 0.42
18,Q49M,-0.052 ± 0.21
19,K28E,-0.173 ± 0.21
20,K28P,-0.584 ± 0.32
21,K28G,-0.203 ± 0.093
22,K28H,-0.253 ± 0.24
23,G51D,-0.793 ± 0.4
24,G51A,-0.408 ± 0.2

row,Variant,abundance fitness
1,G51E,-0.86 ± 0.29
2,S62F,-0.63 ± 0.23
3,S62C,-0.089 ± 0.16
4,S62P,-0.21 ± 0.13
5,S62H,-0.362 ± 0.23
6,S62A,0.062 ± 0.098
7,S62V,-0.253 ± 0.21
8,S62I,-0.165 ± 0.3
9,S62R,-0.101 ± 0.11
10,S62K,-0.158 ± 0.28
11,W16M,-0.281 ± 0.26
12,W16I,0.126 ± 0.2
13,W16T,-0.646 ± 0.15
14,W16R,-0.115 ± 0.084
15,W16P,-0.691 ± 0.27
16,W16S,-0.053 ± 0.1
17,A18Y,-0.365 ± 0.073
18,A18M,-0.09 ± 0.11
19,A18R,-0.267 ± 0.072
20,N25H,0.009 ± 0.5
21,N25S,-0.074 ± 0.14
22,N25L,-0.28 ± 0.15
23,N25F,-0.491 ± 0.23
24,N25E,-0.08 ± 0.13

row,Variant,abundance fitness
1,N25C,-0.057 ± 0.28
2,N25D,-0.066 ± 0.1
3,N25W,-0.462 ± 0.17
4,N25P,-0.451 ± 0.37
5,N25M,-0.087 ± 0.21
6,F43P,-0.808 ± 0.17
7,F43S,-0.546 ± 0.13
8,F43Y,-0.119 ± 0.29
9,F43K,-0.202 ± 0.11
10,F43C,-0.563 ± 0.33
11,F43A,-0.696 ± 0.13
12,F43G,-0.596 ± 0.16
13,F43L,-0.019 ± 0.09
14,A12C,-0.474 ± 0.21
15,A12T,-0.841 ± 0.32
16,A12W,-1.02 ± 0.44
17,K4Q,-0.39 ± 0.16
18,K4H,-0.168 ± 0.3
19,K4F,-0.193 ± 0.27
20,K4C,0.207 ± 0.47
21,K4S,-0.014 ± 0.098
22,S56A,-0.137 ± 0.13
23,S56D,-0.1 ± 0.18
24,S56P,-0.298 ± 0.22

row,Variant,abundance fitness
1,S56Q,-0.099 ± 0.2
2,S56V,-0.099 ± 0.081
3,S56M,-0.238 ± 0.12
4,S56C,-0.204 ± 0.28
5,S56K,-0.251 ± 0.2
6,H23Q,-0.135 ± 0.31
7,H23P,-0.596 ± 0.18
8,H23A,-0.245 ± 0.091
9,H23F,-0.123 ± 0.26
10,H23C,-0.492 ± 0.22
11,H23L,-0.114 ± 0.085
12,H23W,-0.04 ± 0.2
13,A10G,-0.212 ± 0.07
14,A10R,-0.807 ± 0.17
15,A10W,-0.183 ± 0.14
16,A10K,-0.152 ± 0.16
17,Q47F,0.133 ± 0.2
18,Q47V,-0.097 ± 0.076
19,Q47M,-0.097 ± 0.1
20,Q47E,0.017 ± 0.12
21,K19S,0.008 ± 0.042
22,K19I,-0.028 ± 0.053
23,K19E,0 ± 0.084
24,K19C,-0.048 ± 0.055

row,Variant,abundance fitness
1,K19Y,-0.078 ± 0.056
2,K19N,-0.055 ± 0.057
3,K19A,-0.018 ± 0.052
4,K19H,-0.114 ± 0.064
5,Q37A,-0.036 ± 0.21
6,Q37K,0.149 ± 0.28
7,Q37R,-0.06 ± 0.11
8,Q37T,-0.052 ± 0.18
9,Q37M,0.323 ± 0.2
10,Q37W,-0.162 ± 0.16
11,Q37V,-0.588 ± 0.24
12,I61R,-0.155 ± 0.065
13,I61M,-0.383 ± 0.18
14,I61H,-0.438 ± 0.2
15,V5P,-0.07 ± 0.21
16,V5T,-0.237 ± 0.16
17,V5D,0.126 ± 0.4
18,V5L,-0.364 ± 0.14
19,V5G,-0.155 ± 0.084
20,V5A,-0.008 ± 0.11
21,V5E,-0.126 ± 0.17
22,V5S,-0.115 ± 0.2
23,V5C,-0.488 ± 0.29
